Data reported in patent US20220195070A1 (Chugai, published 2022).
Residue numbers refer to the chain shown, from its start. Like-named read-outs stand apart in the source and are kept apart here.

B1: SKA0046 (antibody, V domains shown)
VH: QEQLVESGGGLVQPEGSLTLTCTASGFSLSSSNYMWWVRQAPGKGLEWIACIHASSSGDTYYANWAKGRFTISKTSSTTVTLQMTSLTAADTATYFCARGGYIYGDGGYNGVAGFSLWGPGTLVTVSS
VL: DVVMTQTPASVSEPVGGTVTIKCQASETIGNALAWYQQKPGQRPKLLIYGASNLESGVPSRFKGSGSGTEFTLTISDVQCDDAATYYCQSIYYSSSADTFFFPFGGGTEVVVKG
notes: Recombinant rabbit monoclonal from B-cell cloning, expressed in FreeStyle 293-F cells; the first screen used B-cell culture supernatant; also called Anti-SG115 Antibody; rabbit Anti Fc-Mutation Antibody
B2: SKA0016 (antibody, V domains shown)
VH: QEQLVESGGGLVQPEGSLTLTCTASGFSFSSSDYMCWVRQAPGKGLEWIACIYIGSNGDTFYASWAKGRFTISKTSSTTVTLQMTSLTAADTATYFCARDSRRADDYGTRLDLWGQGTLVTVSS
VL: DIVMTQTPSSVSAAVGGTVTIKCQASQNIYRNLAWYQQKPGQPPKLLIYQASKLESGVPSRFKGSGSGTEFTLTISDLDCDDAASYYCQSISYISSGDTFFWAFGGGTEVVVKG
notes: as for B1
B3: SKA0028 (antibody, V domains shown)
VH: QSVEESGGRLVTPGTPLTLTCTASGFTISSYHMSWVRQAPGKGLEWIGIIHGSGNMWYASWAKGRFTISRTSTTVDLEITSPTTEDTATYFCARIRFWASSNYYYFYLWGQGTLVTVSS
VL: ALVMTQTPASVSEPVGGTVTINCQASQNIYSNLAWYQQKPGQRPRLLIYGASNLESGVPSRFRGSGSGTEFTLTISDLECADAATYYCQSAYWGNNNDGAFGGGTEVVVKG
notes: as for B1
B4: SKA0001 (antibody, V domains shown)
VH: QSVEESGGRLVTPGTPLTLTCTVSGFSLSYYAMNWVRQAPGKGLEWIGIIGISGGTYYASWAKGRFTISKSSSTTVDLKMTSPTTEDTATYFCARGGSAWGDLWGQGTLVTVSS
VL: DIVMTQTPSSVSAAVGGTVTINCQASQSISRLLAWYQQKPGQPPKVLMHDASDLASGVPSRFKGSGSGTEYTLTISDLECADAATYYCQSYYWGSSGDIGYPFGGGTEVVVKG
notes: as for B1
B5: SKA0052 (antibody, V domains shown)
VH: QSLEESGGDLVKSGASLTLTCTASGFSFSSSYYMCWVRQAPGKGLEWIACIYTGSNGDTYYASWANGRFTISKASSTTVTLQMTSLTAADTATYFCARYTYDDDGDYTSFNLWGPGTLVTVSS
VL: ALVMTQTPSSVSADVGGTVTINCQASQNIYRNLAWYQQKPGQRPKLLIYGASNLEPGVPSRFKGSGSGTEFTLTISDLECDDAATYYCQSVGYSGSVDTFFYAFGGGTEVVVKG
notes: as for B1
B6: SKA0171 (antibody, V domains shown)
VH: QSLEESGGGLVQPEGSLTLSCTASGFSFSSSYYMCWVRQAPGKGLEWIACIYGGNSVITYYANWAKGRFTISETSSTTVTLQMTSLTAADTATYFCAREVHYDYLYTTYGYANLWGPGTLVTVSS
VL: AIKMTQTPASVSAVVGGTVTINCQASETIYSGLAWYQQKPGQPPKLLIYDTANLETGVSSRFKGSGSGTEYTLTISDLECDDAATYFCLYAYYSGGSADNAFGGGTEVVVKG
notes: as for B1
B7: SKA0117 (antibody, V domains shown)
VH: QSLEESGGDLVKPEGSLTLTCTASGFSFSSSHYMCWVRQAPGKGLEWIACIYAGSSDNTYYASWAKGRFTISKTSSTTVTLQMTSLTAADTATYFCARDTYGYVGYASAGGFFNLWGPGTLVTVSS
VL: ALVMTQTPASVSAAVGGTVTINCQASHNIYSVLAWYQQKPGQRPRLLIYGASNLESGVPSRFKGSGSGTEYTLTISDLECDDAATYYCQSAYYSSSTGDNAFGGGTEVVVKG
notes: as for B1
B8: SKA0141 (antibody, V domains shown)
VH: QSLEESGGDLVKPGASLTLTCTASGFSFSSSYYMCWVRQAPGKGLEWIACIYAGSSGSTYYASWAKGRFTISKTSSTTVTLQMTSLTAADTATYFCARDGDENMLVGGYFNLWGPGTLVTVSS
VL: B7 VL with A9S, V32N, R45K, S96N, T97A, D99Y
notes: as for B1
B9: SKA0027 (antibody, V domains shown)
VH: QEQLVESGGGLVQPEGSLTLTCTASGFSFSSSDYMCWVRQAPGKGLEWIGCIYTGSGSTYYASWAKGRFTISKTSSTTVTLQMTSLTAADTATFFCARRGDSYSNYSFKLWGPGTLVTVSS
VL: AFELTQTPASVEAAVGGTVTIKCQASQNIYSNLAWYQQKPGQPPKLLIYTASSLASGVSSRFKGSGSGTEFTLTISDLECDDAATYYCQCTYINNGYGNTFGGGTEVVVKG
notes: as for B1
B10: SKA0009 (antibody, V domains shown)
VH: QSVEESGGRLVTPGTSLTLTCTVSGIDLSSYGMGWVRQAPGMGLEYIGIIYAAGRTYYASWVKGRFIISKTSTTVDLEMTSLTTEDTATYFCARHGSWYAGMDLWGPGTLVTVSS
VL: AIEMTQTPSPVSAAVGGTVSINCQASEDIENYFAWYQQKPGQPPKLLIYDASELASGVPSRFSGSGSGTDFTLTISGVQCDDAATYYCQHADYAASSENTFGGGTEVVVKG
notes: as for B1

Key:
[1] = target: T1, Glm (human, UniProt P01857 1-328 = IgG part); test: ELISA, OD405 against dose (ng/mL, log axis 1-100)
T1 construct: Construct used in the ELISA is not described beyond the constant region; also called G1m
T1 sequence (P01857 1-328 D239E/L241M limits assumed): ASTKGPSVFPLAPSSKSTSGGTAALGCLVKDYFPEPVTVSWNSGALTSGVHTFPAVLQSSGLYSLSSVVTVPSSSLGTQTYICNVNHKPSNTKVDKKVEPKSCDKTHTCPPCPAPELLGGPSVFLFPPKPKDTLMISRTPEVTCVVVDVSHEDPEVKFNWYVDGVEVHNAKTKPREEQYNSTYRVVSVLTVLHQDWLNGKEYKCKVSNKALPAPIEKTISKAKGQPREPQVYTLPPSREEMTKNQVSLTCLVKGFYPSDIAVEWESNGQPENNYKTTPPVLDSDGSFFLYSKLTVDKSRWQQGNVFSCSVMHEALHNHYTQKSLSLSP

[2] = target: T2, G4d (human, UniProt P01861 1-325 = IgG part); test: ELISA, OD405 against dose (ng/mL, log axis 1-100)
T2 construct: Construct used in the ELISA is not described beyond the constant region
T2 sequence (P01861 1-325 S108P limits assumed): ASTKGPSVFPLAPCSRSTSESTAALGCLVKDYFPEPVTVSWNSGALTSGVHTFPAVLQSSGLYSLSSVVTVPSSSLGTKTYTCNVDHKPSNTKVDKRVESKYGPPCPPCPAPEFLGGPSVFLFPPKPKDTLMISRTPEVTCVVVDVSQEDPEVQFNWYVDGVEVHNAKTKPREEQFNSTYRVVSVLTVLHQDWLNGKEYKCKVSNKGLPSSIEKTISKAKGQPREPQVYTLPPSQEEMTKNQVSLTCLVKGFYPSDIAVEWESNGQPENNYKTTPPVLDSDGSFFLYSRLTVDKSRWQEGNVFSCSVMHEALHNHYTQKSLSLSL

[3] = target: T3, SG115v1 (human, UniProt P01857 1-328 = IgG part); test: ELISA, OD405 against dose (ng/mL, log axis 1-100)
T3 construct: Carries the CH2 modifications of SG115 (Arg235, Arg236, Lys239, EU); Construct used in the ELISA is not described beyond the constant region; also called modified IgG heavy chain constant region SG115v1
T3 sequence (P01857 other isoform, or with tags, fused parts or gaps limits assumed): as the sequence (P01857 1-328 D239E/L241M limits assumed) above, with L118R, G119R, S122K, A210G, A213S, P214S counted along it

[4] = target: T4, SG115 (human, UniProt P01857 1-328 = IgG part); test: ELISA, OD405 against dose (ng/mL, log axis 1-100)
T4 construct: also called modified IgG heavy chain constant region SG115
T4 sequence (P01857 other isoform, or with tags, fused parts or gaps limits assumed): as the sequence (P01857 1-328 D239E/L241M limits assumed) above, with L118R, G119R, S122K, A210G, A213S, P214S, M311L, N317A, Q321R, S323E counted along it

[5] = target: T5, SG115v2 (human, UniProt P01857 1-328 = IgG part); test: ELISA, OD405 against dose (ng/mL, log axis 1-100)
T5 construct: Carries the CH3 modifications of SG115 (Leu428, Ala434, Arg438, Glu440, EU); Construct used in the ELISA is not described beyond the constant region; also called modified IgG heavy chain constant region SG115v2
T5 sequence (P01857 other isoform, or with tags, fused parts or gaps limits assumed): as the sequence (P01857 1-328 D239E/L241M limits assumed) above, with A210G, A213S, P214S, M311L, N317A, Q321R, S323E counted along it

[6] = target: T6, Anti-IL-8 Antibody; test: SPR (Biacore T200), 25 C, pH 7.4; SKA antibody captured by anti-rabbit IgG, Anti-IL-8 Antibody injected 0-800 nM
T6 construct: also called anti-human IL-8 antibody; Fc-Mutated Antibody
T6 sequence (constant, as listed by the source limits assumed): as the sequence (P01857 1-328 D239E/L241M limits assumed) above, with L118R, G119R, A210G, A213S, P214S, M311L, N317A, Y319T, Q321R, S323E counted along it
Protocol: To confirm the binding ability of Anti Fc-Mutation Antibodies that show selective binding to SG115v1, KD values of Anti Fc-Mutation Antibodies against Anti-IL-8 Antibody at pH 7.4 were determined at 25 degrees C. using Biacore T200 instrument (GE Healthcare). Sequence of Fc region of Anti-IL-8 Antibody has high similarity to that of Anti-hC5 Antibody.
Anti-rabbit IgG (Abbexa) was immobilized onto FC1 and 2 of a CMS sensor chip using an amine coupling kit (GE Healthcare). For the immobilization of anti-rabbit IgG, HBS-EP+, pH7.4 (GE Healthcare) buffer was used as running buffer. After the immobilization, running buffer was changed to Phosphate pH7.4 buffer (50 mM phosphate buffer containing 150 mM NaCl and 0.05 w/v % P-20, pH 7.4). Each Anti Fc-Mutation Antibody was captured onto FC2 of the sensor chip by anti-rabbit IgG. The amount of Anti Fc-Mutation Antibody to be captured was adjusted so that the number of resonance units (RU) was 100. Anti-IL-8 Antibody was injected at 0, 100, 400, and 800 nM at 10 micro L/min. Sensor surface was regenerated after each cycle with 10 mM Glycine-HCl, pH2.0, which was injected at a flow rate of 30 micro L/min. KD values were obtained using Biacore T200 Evaluation software, version 2.0 (GE Healthcare).

[7] = target: T1, Glm; test: ELISA, OD405 against dose (ng/mL, log axis 1-100); remark: listed apart in the source
[8] = target: T2, G4d; test: ELISA, OD405 against dose (ng/mL, log axis 1-100); remark: listed apart in the source
[9] = target: T3, SG115v1; test: ELISA, OD405 against dose (ng/mL, log axis 1-100); remark: listed apart in the source
[10] = target: T4, SG115; test: ELISA, OD405 against dose (ng/mL, log axis 1-100); remark: listed apart in the source
[11] = target: T5, SG115v2; test: ELISA, OD405 against dose (ng/mL, log axis 1-100); remark: listed apart in the source

| Binder | binding result [1] | binding result [2] | binding result [3] | binding result [4] | binding result [5] | Kd [6] | koff [6] | kon [6] | binding result [7] | binding result [8] | binding result [9] | binding result [10] | binding result [11] |
| --- | --- | --- | --- | --- | --- | --- | --- | --- | --- | --- | --- | --- | --- |
| B1 | no binding (tested: about 60 ng/mL) | no binding (tested: about 60 ng/mL) | binds | binds | no binding (tested: about 60 ng/mL) | 49.6 nM | 0.00209 s⁻¹ | 42000 M⁻¹ s⁻¹ |  |  |  |  |  |
| B2 | no binding (tested: about 60 ng/mL) | no binding (tested: about 60 ng/mL) | binds | binds | no binding (tested: about 60 ng/mL) | 60 nM | 0.00071 s⁻¹ | 11800 M⁻¹ s⁻¹ |  |  |  |  |  |
| B3 | no binding (tested: about 60 ng/mL) | no binding (tested: about 60 ng/mL) | no binding (tested: about 60 ng/mL) | binds | binds |  |  |  |  |  |  |  |  |
| B4 | no binding (tested: about 60 ng/mL) | no binding (tested: about 60 ng/mL) | no binding (tested: about 60 ng/mL) | binds | binds |  |  |  |  |  |  |  |  |
| B5 |  |  |  |  |  | 47 nM | 0.00431 s⁻¹ | 91700 M⁻¹ s⁻¹ | no binding (tested: about 60 ng/mL) | no binding (tested: about 60 ng/mL) | binds | binds | no binding (tested: about 60 ng/mL) |
| B6 |  |  |  |  |  |  |  |  | no binding (tested: about 60 ng/mL) | no binding (tested: about 60 ng/mL) | no binding (tested: about 60 ng/mL) | binds | binds |
| B7 |  |  |  |  |  |  |  |  | no binding (tested: about 60 ng/mL) | no binding (tested: about 60 ng/mL) | no binding (tested: about 60 ng/mL) | binds | binds |
| B8 |  |  |  |  |  |  |  |  | no binding (tested: about 60 ng/mL) | no binding (tested: about 60 ng/mL) | no binding (tested: about 60 ng/mL) | binds | binds |
| B9 | no binding (tested: about 60 ng/mL) | no binding (tested: about 60 ng/mL) | no binding (tested: about 60 ng/mL) | binds | binds |  |  |  |  |  |  |  |  |
| B10 | no binding (tested: about 60 ng/mL) | no binding (tested: about 60 ng/mL) | binds | binds | no binding (tested: about 60 ng/mL) | 36.2 nM | 0.000904 s⁻¹ | 25000 M⁻¹ s⁻¹ |  |  |  |  |  |
